# B1: native MjpIgR (Marsupenaeus japonicus polymeric immunoglobulin receptor-like protein) (receptor, UniProt A0A3S8D7Y1 1-562, looked up)
# chain: QEYSVDEPNNRDVVFNGVQSSDVSLIFDDADIIVNPGERLDLNCGFQGQYRHCIWELEGAKPIQVQDVYDDVHPGMSRPEVSEGNECGIVINSVSTEQHGKWTCRVFITGNSLEGSKKVIVTVKPTYPILEVDNSQLLEVTSDAETPVKCVVAAARPAVGIRWFLGDKDVTVMAETEETPTDNEGMYKSISTLRRTFEPMENGMMLVCSVSHKTLTVPENASIPLNVVFKPVEKPVSTYYQIRPGSDYEVKLNFSANPPPTRKEWRYGDTFQNIAVSIEIPGAKDRYETYIEELGNGMYTATLRIAGFKEEDANQRYMLVVQNDLGETSYKVRLSMDDAPKDGDSETRDHDKNPSTEYSVSEGIVFDDDTMSNTLSGGAVAGIVIVVLIIVTAVAAAGYARYRQMFCFAPVVTPDPEEGKETKEEHSDTESARGANTTRAANLKNSLGRLTQVFKKPKKEQETKLENIGDDEKRSLTTEDPKKGSPIKEQNVDDKEVVYAELDLGKSESDKKTEVKAEDKTEYAQIVGTVTDNREDEKKE
# notes: also called pIgR-like protein; source: endogenous, hemocytes of M. japonicus 30 min after WSSV injection
# Biological target: the molecule itself
# Test: cross-linking; BS3 (5 mM, 2 h, room temperature) on hemocytes of shrimp 30 min after WSSV injection, SDS-PAGE, western blotting with anti-MjpIgR antibodies; oligomer size by molecular mass
protein,measurement,value
B1,stoichiometry N,4

# Reference: PMC6380602, “The polymeric immunoglobulin receptor-like protein from Marsupenaeus japonicus is a receptor for white spot syndrome virus infection” (PLoS Pathogens, 2019)
